In paper PMC9436372:

Target: T1, ATF3 (recombinant human) (Homo sapiens, UniProt P18847 1-181)
T1 sequence: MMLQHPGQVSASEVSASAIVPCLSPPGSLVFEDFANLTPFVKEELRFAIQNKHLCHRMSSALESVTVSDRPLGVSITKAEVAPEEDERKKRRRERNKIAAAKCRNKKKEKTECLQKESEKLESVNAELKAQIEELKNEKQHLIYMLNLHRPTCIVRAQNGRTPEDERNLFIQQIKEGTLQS
Assay: EMSA

B1: HyATF3-2 probe (dsDNA)
DNA 1: TTATGTTTACTGACGTTTCCCTGCCTTCTA
DNA 2: TAGAAGGCAGGGAAACGTCAGTAAACATAA
- binding result: binds

B2: HyATF3-1 probe (dsDNA)
DNA 1: GAAAAAAACGTCAGAAAACAAGTGACGTATTATA
DNA 2: TATAATACGTCACTTGTTTTCTGACGTTTTTTTC
- binding result: binds
